Here are results for one protein from article PMC8333309, “Mechanism of LolCDE as a molecular extruder of bacterial triacylated lipoproteins” (Nature Communications, 2021).

Substrate in this data set: Nc1ncnc2c1ncn2[C@@H]1O[C@H](COP(=O)(O)OP(=O)(O)OP(=O)(O)O)[C@@H](O)[C@H]1O
Description: colorimetric phosphate-release ATPase assay. To be noted: LolCDE in POPG nanodiscs, MgCl2, 25 mM Tris pH 8, 150 mM NaCl, 37 °C, basal activity, no lipoprotein added. The class given is biochemical, Escherichia coli.

B1: LolCDE (Escherichia coli K-12) (protein)
chain: MNKILLQCDNLCKRYQEGSVQTDVLHNVSFSVGEGEMMAIVGSSGSGKSTLLHLLGGLDTPTSGDVIFNGQPMSKLSSAAKAELRNQKLGFIYQFHHLLPDFTALENVAMPLLIGKKKPAEINSRALEMLKAVGLDHRANHRPSELSGGERQRVAIARALVNNPRLVLADEPTGNLDARNADSIFQLLGELNRLQGTAFLVVTHDLQLAKRMSRQLEMRDGRLTAELSLMGAE
notes: co-expressed in E. coli BL21(DE3); purified in DDM, reconstituted into MSP1D1/POPG nanodiscs; co-purifies with lipoprotein; with Lipoprotein-releasing system transmembrane protein LolC; Lipoprotein-releasing system transmembrane protein LolE
Regarding B1, the Michaelis constant (Km) was 190 ± 50 µM.
